Reference: the DeepSol protein solubility set

Assay: soluble on expression in E. coli; label from the status in PepcDB or PDB records

Row | Sequence | soluble on expression in E. coli
1 | MGSDKIHHHHHHMKDNFFGREYDIAPAGGETGQAFVATHEDEKFFLKRNSSPFLAALSVENIVPKLVWTRRVENGDVITAQKWVNCHILTREEMVGPRVAKLLAKIHHSENLRHMLEKIENCYFSAHQLLARLKAEMKAKNEANNVMQTAIEYLERNITAVEKADYVVCHGDVNHNNWIISEENELFLVDWDGAMLADAANDLGMILYQYIPREGWDEWLSNYGTTLTSELHRKLKWYTLCQTVMQLTTNQSEEAYERAKQIFQNAIEDDEV | not soluble
2 | MGSDKIHHHHHHMKFIVKTQMDMEAVAGNYIREVLPNAKVTIAPEGYPGIVIVESEEENALQKILEVPEVEKVYPVLIEVPANLDSIKSAADEIVKYIKEGETFAVRTKKRGKRDFSSVDVNVVLGARIKDLTNAEVNLSYPDKVVQVEIIGEKAYISVIPGKEYTKWKKYPKDKPDCRKLFRKLTIVQMPYWGDYKTARAFGEKIGRAAQAFEVKELIIAPKEKMNAYELMAFIRGVKEGQESRYQIQKEAYPWEVEKVPVTVWDLYQVIRDKRRNRRLIIITDPKGPTLNEVKDKLARDMYYAKEIIIFIGSREGIPIGLFRFADYVVDLAPYMTFATEHGIPATLVALWTIYEEELRRRGEIND | not soluble
3 | MGSDKIHHHHHHMKFKQDYFDQLSGFYSQVTPQGLPRPQWLAWSEDAAALIGLKQPDDELLQGLAGNQAIPGASYYAQVYSGHQFGGYSPQLGDGRSIILGEAEGPQGYWDVALKGAGMTPYSRHGDGRAVMRSAVREFLVSEALHHLNIPTTRALAVIGSDLPVWRETQETAAITVRLAKSHIRFGHFEFFCHSEQGSKDKLKQLLDFTLSQHYPELSRDQAGYIAWFNRVVADTAKLIAHWQAVGFAHGVMNTDNMSILGDSFDFGPFAFLDTFEEDFICNHSDPNGRYAFGQQPGVGLWNLQRLAQALVPIIASDDLIAALNTYQHHLVQAYLVLMRDKLGIKLVEPAGSERDEADLQLIGGFTLLMEANRLDHTNTWRRFAQLDPNSQHSSLRDDFIDLAGFDTWYQAYQERLGQVSDVAGWQAVRAQVNPKYVLRNYLAQEAIIACEEGNTQPLAELHQLLTRPFDEQPEKEAYAKRPPEWGQGLIMSCSS | not soluble
4 | MGSDKIHHHHHHMKFMKSLEPLNNHDETAAGDAMRGPSGGGNSASILNEAENILRDYYGGAIESLFIERLVVGVFFTGVKLSNGCGGVAYTPPETIRNASRRILRGSPSAIRGKSADVVISGKIPSPFADVIRLAAINALSVPFFQDGRYDFEKSDDLSDVSHLFTGRRVCMVGAIVPLLKRFKKMGVSEIKVIDRKKDSQIEVELACGEFLSPEQTAETIAQCETAVFTGAAVANGTIEHLLRLVPKEAAVAVVGPTAGFIPDPLFRRNVALVGTAMVTDIAAALDIIAEGGGAYPLFGRCVKKINILNRKRIEQLKPGSKTA | not soluble
5 | MGSDKIHHHHHHMKFPRKGIPQEEVMRELEKYTSKDLSFSSGKILGSMCTLPHELAKEVFCMYMDRNLGDPGLHPGTKKIEEEVIEMLSDLLHLERGYGHIVSGGTEANILAVRAFRNLADVENPELILPKSAHFSFIKAGEMLGVKLIWADLNPDYTVDVKDVEAKISENTIGIVGIAGTTGLGVVDDIPALSDLARDYGIPLHVDAAFGGFVIPFAKELGYDLPDFDFKLKGVQSITIDPHKMGMAPIPAGGIVFRHKKYLRAISVLAPYLAGGKIWQATITGTRPGASVLAVWALIKHLGFEGYMEIVDRAMKLSRWFAEEIKKTPGAWLVREPMLNIVSFKTKNLRRVERELKSRGWGISAHRGYIRIVSHASCDGGHD | not soluble
6 | MGSDKIHHHHHHMKFSKLADQVWGEEPDDQVRSFVFMSNLDAQETANTMDVSVSVERIHADLCGNTELASELHYTPDEWDEAQGWVKINYPLIDDTASASLDVVLDATFQPLPGQPFEGEALTLIDALLHHAENVAASNPWKRTTFHTAHMHPPGSNADCDYCLVLQRRGYVKAHEEIQQTIPLPSGDWSAGEFTVVDVEGTAFPSALIPSIVELQHRAALDVPHGNLSVAPAQWDEHRLAQQSERILKTGTKLFTVLFAEGSTVAAMSSIAIPPGSNPDIAEQGLTIVHPDFRGRGLGTAVKLAGLSLLSRCHPEIQRVATSNAVDNHAMLAINRSIGATEIARTTLWEKKL | not soluble
7 | MGSDKIHHHHHHMKGVLYISFLVCILLGCSDSDGLPDGGKDKTARTELEIVSASIVEGNTQTRADVPFTPGSSIALFCHGQAAETSYTPVNNRKYTLNSGDSKWTAESEATTIYLGSEKADVCGYYPYVEGTVGTADTLYNVRTTIPMDTQDYDPSKELYYVANQEVDAKRYFVEMHFKHAYSRLVLNIGVEDAYPATCSINSVALANDSLFRKAVIDITSGTVGIHPDDTEKQFRGGYNITKDLPYLLDSPDKKYQADLLMIPTKLLPDPFEPTKGLSVIVNVSGFPATVIIPIDDLSDFESGKKYVVSLKLRGIAIKSVTVTTTDWDEKRLNEGVDYEPLPQS | not soluble
8 | MGSDKIHHHHHHMKHGGYPWKNGKPALDVKDFSVNLNPMGVPKFIEELINEAVKLKVYAYYPPQNLREIKGIIAEIYGVNEDLVGVFNGASEVISILDENFTVPQPNYSEYKFHSYYFAEEHEDEFVFELNPGRILTSNPNNPTGSLIKLDEIEEFLINEKNELILDESFIDISLAESATKLVNEFNNLTIINSFTKSLAIPGLRFGFSIGHKSKELEKRVPIWRINSITYYVISNLNPKEVRSFFVNSKIKVKEIYDKVDGVKKLFKMYKSYAPFFLVEFKIPTSLINDELIRRCKCYIRDASNFLGLRNTHARIALKNEVIELINNINEIISEKES | not soluble
9 | MGSDKIHHHHHHMKIAVINFSGNVGKTTVSRHLLLPRIQGAELISVESVNADEGKTTALRGGQFAELQEYLQTVNSAIVDIGASNVDQLLFLMQSYRGSHEDFDCFVVPTVPPLKQQQDTIATLIDLSRLGVPPSRLKILFNMTEPGRPVEQTFYLLLAYLAQHPIAVPNTACSLGANEIYGRIRGIKSDLGTLARDTTDYKSLIAKAKDATEKLALAQKLATRRLASGVVLELDACFGALDLHALSAGASPTETSAEA | not soluble
10 | MGSDKIHHHHHHMKIGITCYPSMGGSGIIATELGIKMAERGHEVHFITSNIPFRIRKPLPNMTFHQVEVNQYAVFQYPPYDITLSTKISDVIQEYDLDILHMHYAVPHAVCGILAKQMSGKNVKIMTTLHGTDITVLGYDHTLQNAIKFGIEQSDIVTSVSHSLAQQTYEIINTKKEIIPIYNFVRENEFPTRHNEELKDCYGISPEEKVLIHVSNFRKVKRIDTVIETFAKVHESIPSKLILLGDGPELIDMRHKARELDVETHVLFLGKQNDVSAFYQLSDLVLLLSEKESFGLTLLEAMKTGVLPIGSHAGGIKEVIRHEETGFIVDIGDSTQAAKYAIKLLSNPELYQKMQSQMLKDIEARFSSDLITDQYENYYRKMLEQGENNNES | not soluble
11 | MGSDKIHHHHHHMKIIQLEYFLAIVKYNSFTKAAQFLHISQPSLTATIKKMEADLGYDLFTRSTKDIKITEKGIQFYRYASELVQQYRSTMEKMYDLSVTSEPRIKIGTLESTNQWIANLIRKHHSDYPEQQYRLYEIHDKHQSIEQSLNFNIHLAITNEKITHEDIRSIPLYEESYILLAPKETFKNQNWVDVENLPLILPNKNSQVRKHLDDYFNRRNIRPNVVVETDRFESAVGFVHLGLGYAIIPRFYYQSFHTSNLEYKKIRPNLGRKIYINYHKKRKHSEQVHTFVQQCQDYLYGLLEAL | not soluble
12 | MGSDKIHHHHHHMKILITGANGQLGREIQKQLKGKNVEVIPTDVQDLDITNVLAVNKFFNEKKPNVVINCAAHTAVDKCEEQYDLAYKINAIGPKNLAAAAYSVGAEIVQISTDYVFDGEAKEPITEFDEVNPQSAYGKTKLEGENFVKALNPKYYIVRTAWLYGDGNNFVKTMINLGKTHDELKVVHDQVGTPTSTVDLARVVLKVIDEKNYGTFHCTCKGICSWYDFAVEIFRLTGIDVKVTPCTTEEFPRPAKRPKYSVLRNYMLELTTGDITREWKESLKEYIDLLQM | soluble
13 | MGSDKIHHHHHHMKIQQPSVLIPDPCNNPLAYYAIRCLKQANSEFNINVIVSSGQTLDDNEWLYFYKYSAYIDNLVVSANSMNSLEYLDEVIRIIENQGINLIFPASEEGFKFVSKYRYKLSKFCRIVALPSEENLDAAFDKWKLHLLLQKHNIPTPETVLLKEIENISQFNYPVILKPVDGSGGKNIQKFDSLEEENFQAICNYPNDVYIVQKYVPGHDIGCSVLCQDGQVLAYTIQQQLGLTEGFTPKIDKLKFVHDSAVIDIVTKTMNVLKWSGIANLDLRYNSQTGQINVIEINPRFWQSLMGSLSVGVNFPYILYLLSNNISFERISYKEQYYAKFHRFIQDAFNGSLEYSLSDTNVKYFLSDPSGILHFLFYKLMKQKLFQNMKSIFSLQSQKIQNVK | not soluble
14 | MGSDKIHHHHHHMKITFPNLGNTLYAAKALFDNLEIEYVLPPNSSKKCLEIGSLYSPEDICLPFKIMIGAYIDSIERGADTILITGSCGPCRFGEYCELQINLLKKLGHDVDFIVLDRPSSIGKTEFLNRLSKISGSSSISSYKKLKAVYSAYKIINLIDYIEKTARYKAGFELKKGECKKILQTCKKSALTCNNAESMIDLLTKYKHMINHVPIDSTKTPLKVSIIGEIYTILEPFSNLYIENKLMDLGISTQKNITPSWWFKDAMLSNLNLNSINLRMNSKKYLPYYIGGHGRECVGEAVMASNSGFDGAIQLFPMGCMPEIVSKSILPTISRDKDFPILSLIIDEMTGDAGYMTRIEAFIDLLERRKNRCII | not soluble
15 | MGSDKIHHHHHHMKIVVTKFGGSSLADSNQFKKVKGIIDSDANRKYIIPSAPGKRTNKDYKITDLLYLCNAHVKNGIPFDDVFKLISQRYTEIVSELNIDMDIAYYLEKVKKNIENGASSDYAASRGEYLNGVILAKYLNAEFIDAAEVIFFDKSGCFDEKKSYEKIKEKVLSCNKAVIPGFYGSSFNGDVKTFSRGGSDVTGSIISAGVNADLYENWTDVSGFLMADPRIVENPKTISKISYKELRELSYMGATVLHEEAIFPVKDSGIPINIKNTNKPSDPGTLILSDTHKEINLGTITGIAGKKNFTVIAIEKALLNSEVGFCRKILSILEMYGVSFEHMPSGVDSVSLVIEDCKLDGKCDKIIEEIKKQCNPDSIEIHPNMALVATVGTGMAKTKGIANKIFTALSKENVNIRMIDQGSSEINVIVGVETVDFEKAVKSIYNAFN | not soluble
16 | MGSDKIHHHHHHMKIYIMKQQMRQAKRVNYLDEHLNCLFYNGNPEIGFRHLTLQKGKTWCELSAKNNYFFFLLEGALIVDFNECVGYEVGKGEMIYLPRSADFKIFAKESADLIILSYGIPVQLCDKLSLSQLGAFITDFKYEFKSLDIRVPLDTFLKLLVKYLDSGMSCQHMHELKQKELFLILRAYYTKEEKVNFFYHSIAASLTFKDKVMGVYLEARTVQELADKCGYGLKTFQRLFYSCFSEVPSKWLMKQKAQHVKARLLDRDIPIKVILDEFGFSTYANFCNYCKRYVGDTPRNIRESVTLGFRK | not soluble
